One molecule from publication doi:10.1101/047555 can be followed below.

This assay has as its target EP12, C-terminal region of MamE containing only the PDZ domains (Magnetospirillum magneticum AMB-1). In words: fluorescence polarisation. In general terms: In fluorescence polarisation assays a small probe gives low polarisation when free and higher when bound to something large.

Where no end group is shown, it is not given here. fluorescein = fluorescein-aminocaproic acid; Ahx = NCCCCCC(=O)O

As for {fluorescein-Ahx}-WSQEMEDWFWQMPLSG [PDZ1* peptide (fluorescein-labelled, phage-derived ligand of MamE PDZ1)], the fold tighter binding than the PDZ2 peptide came out at 10 fold.
